Assay results as given in publication PMC11996858, “Cathepsin K cleavage of angiopoietin-2 creates detrimental Tie2 antagonist fragments in sepsis” (The Journal of Clinical Investigation, 2025).

Molecular target: the molecule itself
Test: non-reducing SDS-PAGE with Western blot; recombinant ANGPT2 incubated with CM-Mq^Veh or CM-Mq^LPS (serum-free conditioned media of RAW264.7 cells), then SDS-PAGE under nonreducing conditions against reduced conditions (10% beta-mercaptoethanol) and Western analysis for ANGPT2

B1: recombinant human angiopoietin-2, full length (ligand, UniProt O15123 19-496, looked up)
chain: YNNFRKSMDSIGKKQYQVQHGSCSYTFLLPEMDNCRSSSSPYVSNAVQRDAPLEYDDSVQRLQVLENIMENNTQWLMKLENYIQDNMKKEMVEIQQNAVQNQTAVMIEIGTNLLNQTAEQTRKLTDVEAQVLNQTTRLELQLLEHSLSTNKLEKQILDQTSEINKLQDKNSFLEKKVLAMEDKHIIQLQSIKEEKDQLQVLVSKQNSIIEELEKKIVTATVNNSVLQKQQHDLMETVNNLLTMMSTSNSAKDPTVAKEEQISFRDCAEVFKSGHTTNGIYTLTFPNSTEEIKAYCDMEAGGGGWTIIQRREDGSVDFQRTWKEYKVGFGNPSGEYWLGNEFVSQLTNQQRYVLKIHLKDWEGNEAYSLYEHFYLSSEELNYRIHLKGLTGTAGKISSISQPGNDFSTKDGDNDKCICKCSQMLTGGWWFDACGPSNLNGMYYPQRQNTNKFNGIKWYYWKGSGYSLKATTMMIRPADF
notes: angiopoietin-2 (ANGPT2), human, recombinant full-length protein of about 75 kDa (glycosylated); As a secreted recombinant protein it probably lacks the signal peptide (surmised); also called ANGPT2; full-length ANGPT2; source: bought: R&D Systems
- stoichiometry N: ≥ 2
